Results as given in the supplement of paper PMC10567573.

B1: TRIM43 (parent)
chain: NNSWIRKNSTMVNSEDIFLLLCLK
B2: PKD2L1 (parent)
chain: TLARCAKDILGFAVMFFIVFFAYA

Variants of: B1
Experiment: protein stability index of a GFP-peptide fusion (GPS, HEK-293T) (PSI 1-6); higher = more stable
Conditions: c terminus: a fixed tail appended
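Also: lentivirally expressed fusions sorted by FACS into six bins by GFP to DsRed ratio, PSI derived from sequencing read proportions per bin multiplied by bin number.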

Protein stability index of substitutions, site by site:
N8: H 1.79, Y 3.85, C 2.24, A 2.9, T 3.13, S 2.69, K 2.4, L 2.61, R 3.47, Q 2.93, M 2.46, V 1.94, P 2.28, D 3.07, E 3.74, W 2.99, G 2.72, I 2.73
I5: Y 2.56, H 3.14, F 2.91, Q 3.02, N 3.07, D 2.61, S 3.64, L 2.8, V 2.27, P 3.31, R 2.13, K 3.55, T 3.2, E 3.23, W 4.27, M 2.4, A 2.47, C 2.8
S3: K 2.5, A 3.59, P 2.4, T 4.59, W 3.13, Y 3.59, I 2.78, E 3.25, Q 3.18, H 2.64, M 3.38, C 3.41, R 2.59, L 2.9, V 2.53, F 1.95, D 2.66, N 2.48
W4: Q 2.62, I 1.99, N 2.4, L 1.6, D 2.64, Y 3.95, H 3, K 2.72, A 1.55, T 2.88, V 3, G 2.06, P 2.73, R 3.35, S 3.31, M 2.59, F 2.91, C 3.11
R6: A 2.27, V 2.73, N 3.63, I 2.66, W 3.13, G 2.76, H 3.75, P 2.75, K 3.09, L 2.03, C 3.31, D 3.82, M 2.76, Y 3.78, S 2.97, E 1.89, F 3.74
S9: H 2.91, M 2.34, Y 3.67, R 2.62, L 3.2, G 2.66, F 2.03, E 2.68, D 3.01, Q 2.69, K 2.54, W 4.39, A 2.99, V 2.19, T 2.62, C 2.28, I 3.83, N 2.49, P 3.63
K7: N 2.32, W 2.95, I 2.71, C 2.73, M 2.73, S 2.95, Y 2.9, D 2.54, Q 2.47, G 3.14, A 4.36, V 2.61, E 2.84, H 2.76, T 2.16, L 2.55, F 2.97, P 3.02, R 4.2
M11: D 2.95, C 2.06, A 2.1, E 1.74
N2: F 3.5, H 2.3, Y 3.58, P 2.24, I 2.32, V 2.46, C 2.89, S 2.48, D 1.88, T 2.14, Q 2.59, R 2.93, M 3.25, L 2.46, G 3.56, W 2.65, E 3.2
N1: F 3.27, W 2.36, M 2.72, G 2.73, Y 2.79, S 2.39, T 2.58, H 3.28, V 3.04, A 2.72, D 2.27, E 4.19, Q 2.11, L 2.47, R 2.71, K 3.25, I 2.27
T10: V 1.95, H 3.31, E 2.91, C 2.73, M 2.48, K 3.25, P 2.82, S 3.33, I 4.37, G 2.9, D 1.98, Q 3.06, R 2.52, W 4.55, F 3.41, Y 3.22, L 2.55, N 2.17

Variants of: B2
Experiment: as above
Conditions: c terminus: a fixed tail appended

Protein stability index, by site and new letter:
F17: R 2.98, E 2.32, I 2.44, V 2.44, Q 1.98, K 2.06, S 2.03, C 2.07, D 3.23, T 2.4, G 2.44, H 3.23, W 1.91, M 1.84, Y 2.37, A 1.79, N 1.56
F20: Y 2.46, D 1.83, T 1.92, W 1.56, Q 3.46, V 3.23, P 3.48, R 2.42, I 2.7, H 2.07, A 1.99, E 2.77, S 2.46, G 2.03, C 2.57, K 2.48
I18: W 3.5, N 1.6, F 3.16, K 1.71, A 2.54, G 2.09, R 2.18, Y 3.2, E 2, S 1.72, D 3.03, T 1.74, C 2.29, Q 1.54, H 1.92, M 1.49, P 2.18
Y23: L 2.34, E 2.56, H 2.27, P 2.51, A 1.7, N 2.61, G 2.6, I 1.51, K 2.31, W 2.72, V 2.37, T 2.98, C 3.45, R 1.42, F 1.57, S 2.47
A24: N 2.33, Y 3.62, L 3.01, R 1.45, W 3.47, F 2.65, D 2.9, K 2.06, M 1.92, I 1.68, Q 2.42, V 1.63, C 1.23, P 3.52
F21: I 3.32, Q 1.38, L 1.94, T 2.88, D 3.21, M 2.54, N 2.78, Y 3.96, K 2.1, G 2.08, A 2.11, W 2.46, H 2.98, S 2.01, R 2.16, C 3.17
A22: P 4.08, H 2.35, N 2.92, M 1.48, G 4.34, L 2.14, E 2.82, Y 2.58, S 3.22, V 1.42, W 2.69, F 1.98, R 1.95, Q 2.21, I 1.91, C 4.15, K 1.67, T 1.83
V19: I 2.9, A 2.61, F 2.13, C 2.32, Q 3.48, N 2.39, E 2.11, P 2.99, W 3, H 3.19, T 2.69, G 2.34, L 3.88, K 2.34, M 2.58, Y 2.5, R 2.36, D 3.22, S 2.36
F16: H 2.28, I 1.57, P 1.96, A 2.21, C 1.79, W 3.32, Y 1.88, T 2.41, L 3.69, E 3.1, S 1.82, N 2.6, M 2.98, G 2.71, R 3.37, V 2.07, Q 4.27, K 4.35
